{"source": "patent US5840283A", "about": "“Composition and method for treating diseased nails” (Sorenson Pharmaceutical, Inc., priority 1997, dated 1998)", "molecules": {"B1": {"name": "papain: proteolytic enzyme (protein, UniProt P00784 134-345, looked up)", "Papain": "IPEYVDWRQKGAVTPVKNQGSCGSCWAFSAVVTIEGIIKIRTGNLNEYSEQELLDCDRRSYGCNGGYPWSALQLVAQYGIHYRNTYPYEGVQRYCRSREKGPYAAKTDGVRQVQPYNEGALLYSIANQPVSVVLEAAGKDFQLYRGGIFVGPCGNKVDHAVAAVGYGPNYILIKNSWGTGWGENGYIRIKRGTGNSYGVCGLYTSSFYPVKN"}, "B2": {"name": "Marcor papain: Marcor Company (Hackensack, N.J.) papain (protein, UniProt P00784 134-345, looked up)", "Papain": "B1 Papain", "modifications": "commercial Marcor preparation"}, "B3": {"name": "USP papain: papain of United States Pharmacopeia standard (protein, UniProt P00784 134-345, looked up)", "Papain": "B1 Papain", "modifications": "USP standard"}, "B4": {"name": "Sigma papain: papain product of Sigma, approximately eighty percent protein (protein, UniProt P00784 134-345, looked up)", "Papain": "B1 Papain", "modifications": "commercial preparation", "notes": "papain product of Sigma, approximately eighty percent protein"}, "B5": {"name": "ICN papain 2× crystallized powder: ICN Company papain, 2× crystallized powder (protein, UniProt P00784 134-345, looked up)", "Papain": "B1 Papain", "modifications": "crystallized powder", "notes": "ICN Company papain, 2× crystallized powder"}, "B6": {"name": "ICN papain 2× crystallized suspension: ICN Company papain, 2× crystallized suspension form (protein, UniProt P00784 134-345, looked up)", "Papain": "B1 Papain", "modifications": "crystallized suspension", "notes": "ICN Company papain, 2× crystallized suspension form"}, "B7": {"name": "Sigma papain, product no. P4762: Sigma Co., product no. P4762, 2× crystallized, lyophilized powder (protein, UniProt P00784 134-345, looked up)", "Papain": "B1 Papain", "modifications": "lyophilized powder", "notes": "Sigma Co., product no; P4762, 2× crystallized, lyophilized powder"}}, "key": {"[1]": {"assay_type": "in vitro ADME, human", "method": "The efficacy of the nail-permeable medication means of the present invention was first evaluated by conducting comparative studies comprising application of a selected drug applied to a human nail in vitro as compared to the application of the nail-permeable medication means containing the same drug applied to a human nail in vitro. Specifically, these tests were conducted using diseased human toenails which were surgically removed from patients as a means of curing the disease condition of the nail.\nEach nail was maintained in an environment simulating an in vivo condition. Each nail was maintained suspended on a plastic holder which allowed air to circulate about the nail. Each nail holder was retained in a separate enclosed system the temperature and humidity within which could be carefully regulated to simulate the human body. These artificial in vivo environments provided the diffusion cells in which the studies were conducted.\nHuman nails were prepared by cleaning and, in some instances, grinding the nail down to establish a more even thickness across the nail. The nails were then hydrated using distilled water to render the nails pliable for placement in the diffusion cell. […] A Teflon® donor compartment 16 was positioned over the nail 12 and the nail saddle 14 was joined to the donor compartment 16 by placement of a silicone sealant about the edges of the nail 12 and donor compartment 16. After the silicone cured, water leakage was tested and the nails were resealed if necessary. […] Attempts were made to use an appropriate size \"O\" ring 18 to form the seal between the nail saddle 14 and the donor compartment 16.\nThe cell 10 was used by adding solvent, usually de-ionized water, until the solvent came into contact with the nail. […] When semi-solid treatment formulations were used, excess product was removed from the nail by cleansing with cotton swabs after twenty-four hours and prior to application of another nail treatment or pre-treatment product. Pretreatment products (e.g., hydrating fluid, etc.) and treatment products (i.e., nail-permeable medication means) were changed or supplemented daily throughout the experimental period.\nAfter addition of the pretreatment or treatment product, the opening of the donor cell 10 was occluded with silicone cement/sealant. The possibility of entrapped air at the interface of the receiver solvent and nail was checked daily, as well as at the beginning of the experiment. To control this problem, care was taken to be certain that no bubbles were present at the time solvents were added and the nail placed in the saddle. Bubbles may not be visible after the apparatus is fully assembled. Also, dissolved gases tend to separate into bubbles and rise to the nail/receiver interface during the process.\nCiclopirox olamine (6-Cyclohexyl 1-hydroxy 4-methyl 2(1H)-pyridone, 2-aminoethanol salt [Bertrafen]), an antimycotic drug, was used in the nail-permeable medication means of the invention for the purposes of testing and analysis. Three analytical methods are identified in the literature which appear to be acceptable means of determining drug diffusion rates. One method requires the use of radio-labeled drug, and another method utilizes LC (liquid chromatography) equipment. The third method, described by Belliardo, et al., in \"Micro-liquid chromatography method for the determination of ciclopirox olamine after pre-column derivatization in topical formulations\" Jr. Chromatography, Vol. 553 (1991), p. 41-5, was the method used here. However, because of lack of access to a micro-LC system, lesser concentrations of ciclopirox olamine (<1-2 μg/ml of diffusion fluid) were unquantifiable. Lesser concentrations were sometimes seen as small irregularities on the HPLC (high-pressure liquid chromatography) tracing, but the identity was not confirmed by computer. […]"}, "[2]": {"assay": "pilot clinical study in patients with subungual onychomycosis", "assay_type": "in vivo, human", "settings": "arm 3; patient's assessment of clinical results 1-5, 5 positive", "quoted_text": "Patients enrolled in the study were diagnosed with subungual onychomycosis from a positive culture of a target nail. The target nail was that nail most severely involved with symptoms of onychomycosis. […] Patients with a history of non-response to standard antimycotic treatments, or severe abnormalities or deformities of the assessed fingers or toes, were excluded.\nThe protocol called for an eleven month treatment period.\nPatients visited their physicians on a monthly basis for evaluation. Clinical measurements and mycological cultures were taken on alternating visits. Adverse events were defined as any abnormal inflammation of the tissues surrounding the nail from the patient's pretreatment condition and were checked by their physician or reported as they occurred. Patient evaluations of clinical treatment were obtained by a survey of patients. Ease of application, convenience of application, and patient's assessments of the clinical results were rated by patients on a scale of 1 to 5 with 1 indicating visible effect and 5 being positive. In addition, patients were also asked to respond to treatment compliance by reporting the number of days per week which they applied their medication as prescribed.\nTherefore, patients treated in arm 3 (antifungal only) of the study were used as the baseline upon which clinical and mycologic results were measured."}, "T. rubrum": {"tested_on": "T. rubrum", "settings": "cited from earlier work"}, "[3]": {"assay": "duration of papain activity after mixture with water", "assay_type": "physicochemical", "settings": "certain activators present", "description": "The nail-permeable medication means also includes a medicament which is especially selected for treatment of a particular disease condition. The concentration of medicament in the nail-permeable means is sufficient to effectively control or eliminate the disease condition. […] It is notable in that respect that many medications have a water base, or have a water component in addition to certain activators (e.g. thiols and mercaptans which include cysteine and a chelating agent, such as EDTA [ethylenediaminetetraacetic acid]) which, when admixed with the enzymatic composition, may begin to degrade the enzyme and/or reduce its effectiveness. However, admixture of a water-based or water-containing medicament with a proteolytic enzyme will typically degrade the enzymatic component slowly enough that significant penetration of the nail still takes place and the medicament is successfully delivered to the disease site. Generally, papain and other proteolytic enzymes are effective for approximately twenty-four hours after mixture with water where certain activators are present. In the absence of such activators, papain may remain active for up to two years."}, "casein substrate": {"tested_on": "casein substrate", "settings": "cited from earlier work"}, "[4]": {"settings": "cited from earlier work"}}, "note": "Where a name gives a salt, the structure may show the parent alone. Read-outs that look alike come from different tables or passages of the source."}
{"molecule": "Cc1cc(C2CCCCC2)n(O)c(=O)c1", "note": "[ciclopirox olamine, 6-Cyclohexyl 1-hydroxy 4-methyl 2(1H)-pyridone, 2-aminoethanol salt]", "values": [{"measurement": "amount of drug diffused compared with soaked nails", "setting": "[1]", "value": "less than when the nails were soaked with the papain-plus-activators"}, {"measurement": "diffusion of drug through the nail, control without proteolytic enzyme component", "setting": "[1]", "value": "no diffusion of drug through the nail"}, {"measurement": "drug diffusion for the seven-day period", "setting": "[1]", "value": "2 to 6", "unit": "µg/mL"}, {"measurement": "effect of increasing papain concentration on amount of drug diffused", "setting": "[1]", "value": "did not increase the amount of drug diffused"}, {"measurement": "effect of soaking time on amount of drug diffused", "setting": "[1]", "value": "the amount of drug that diffused through the treated nails also increased"}, {"measurement": "ANALYSES (ciclopirox diffused through nail)", "setting": "[1]; pH 10", "value": 0, "unit": "µg/mL"}, {"measurement": "Results (1-5)", "setting": "[2]", "value": 1}, {"measurement": "minimum inhibitory concentration (MIC)", "setting": "T. rubrum", "value": 10, "unit": "mg/L"}]}
{"molecule": "B1", "values": [{"measurement": "duration of effectiveness after mixture with water", "setting": "[3]", "value": "approximately twenty-four"}, {"measurement": "diffusion results by papain concentration", "setting": "[1]", "value": "optimal diffusion results"}]}
{"molecule": "B2", "values": [{"measurement": "papain activity", "setting": "casein substrate; Marcor papain, footnote of EXAMPLE I", "value": "30,000 USP Units/m activity"}, {"measurement": "papain activity", "setting": "casein substrate; Marcor papain", "value": "30,000 USP units/mg"}]}
{"molecule": "B3", "values": [{"measurement": "papain activity", "setting": "casein substrate; USP papain", "value": "at least 6,000 USP units per mg"}]}
{"molecule": "B4", "values": [{"measurement": "papain activity", "setting": "[4]; 25° C., pH 6.2, Sigma papain product", "value": "10-20 BAEE Units per milligram of enzyme-containing material"}]}
{"molecule": "B5", "values": [{"measurement": "papain activity", "setting": "[4]; ICN papain forms", "value": "10-20 BAEE Units of activity"}]}
{"molecule": "B6", "values": [{"measurement": "papain activity", "setting": "[4]; ICN papain forms", "value": "15-40 BAEE Units of activity"}]}
{"molecule": "B7", "values": [{"measurement": "papain activity", "setting": "[4]; Sigma product no. P4762, 2× crystallized, lyophilized powder", "value": "16-20 BAEE units/mg"}]}
